Measurements published in patent publication US20050008653.

What was measured:
[1] = molecular target: p53 core domain I195T I195T (UniProt P04637); test: FP
[2] = molecular target: p53 core domain wild-type (UniProt P04637); test: FP; details: wild-type value quoted for comparison; CDB3 did not affect wild-type DNA binding

Gadd45 30-mer DNA
Kd ([1]; after 1 h at 10 C with 100 uM CDB3 peptide): 1000 nM
Kd ([1]; no peptide, 10 C incubation, 1:1 binding fit): 6000 nM
Kd [2]: 800 nM
